This note sets out measurements from publication PMC3461476, “Functional expression of a penicillin acylase from the extreme thermophile Thermus thermophilus HB27 in Escherichia coli” (Microbial Cell Factories, 2012).

What all share (assay): initial rates of hydrolysis, fluorescamine detection of primary amine product
One data set addresses T1, TthPAC (Thermus thermophilus, UniProt Q72G76, DEL247-255).
T1 construct: gene TT_C1972; One gene: precursor without its first 32 residues (membrane anchor), 2223 bp insert in pET28a, His6-tag (20 aa) at N-terminus of alpha subunit kept
In kind it is biochemical. To be noted: 20 mM MES pH 5.5, 65 °C; kcat unit taken from kcat/Km in mM^-1.seg^-1. The source says:
(§1) initial rates of hydrolysis, fluorescamine detection of primary amine product on TthPAC

Substrate in data set [1]: CC/C=C/CC(=O)N[C@@H]1C(=O)N2[C@@H]1SC(C)(C)[C@@H]2C(=O)O
In kind it is biochemical, Thermus thermophilus. To be noted: 20 mM MES pH 5.5, 65 °C, kcat unit taken from kcat/Km in mM^-1.seg^-1.
Source text: as §1

Substrate in data set [2]: CC1(C)S[C@@H]2[C@H](NC(=O)COc3ccccc3)C(=O)N2[C@H]1C(=O)O
In kind it is biochemical, Thermus thermophilus. The following applies: 20 mM MES pH 5.5, 65 °C, kcat unit taken from kcat/Km in mM^-1.seg^-1.
Source text: as §1

Substrate in data set [3]: CCCCCC(=O)N[C@@H]1C(=O)N2[C@@H]1SC(C)(C)[C@@H]2C(=O)O
It counts as biochemical, Thermus thermophilus. To be noted: 20 mM MES pH 5.5, 65 °C, kcat unit taken from kcat/Km in mM^-1.seg^-1.
Source text: as §1

Substrate in data set [4]: CCCCCCCC(=O)N[C@@H]1C(=O)N2[C@@H]1SC(C)(C)[C@@H]2C(=O)O
It counts as biochemical, Thermus thermophilus. To be noted: 20 mM MES pH 5.5, 65 °C, kcat unit taken from kcat/Km in mM^-1.seg^-1.
Source text: as §1

As for `CC1(C)S[C@@H]2[C@H](NC(=O)Cc3ccccc3)C(=O)N2[C@H]1C(=O)O` [Penicillin G], on TthPAC, the “K m (mM)” value is listed as “~ Approx. 2.90 mM”.

B1: TthPAC (Thermus thermophilus HB27; DEL247-255) (protein)
chain: LYLRASLPQGEGRIALEGLSAPVEVVRDGKGVVRIRAATLKDLFFAQGFVHAQERLWQMEFQRRVGQGRLSEILGEATLPQDRFLRTWGFYRAARAAYGKLYPEEKEAVDAYAAGVNAFLASGAPLPPEFRLLGFRPEPWTGPDVLVWAKMMSYDLSGNWEEELKRHRLLARGVSPKRLLELKPPYPEDAPTVLRAEDLKLPLKREEAPSALLRSNNWVVAGSRTETGKPFLANDPHLALQAPSLWFLMALEAPGLRAIGATLPGLPGVVIGRNERIAWGVTNVGADVEDLYLLEEVEGRGYRYKGRVVPYGVREEVIRVKGGREEVLKVRETVYGPVITDALEDPPKTPMALRWVSLDEEDHILMAFLGVNRAGNWEEFKKALLPYSAPSQNFVYADVEGNIGYIAPGKFPVRKEGHTGMVPVPGNGEWDWLGYRRPEEWPQAFNPARGYLVTANHKVTPKGFPYALTYDWAEPYRAERIEELLLAKEKLSLEDMKAIQQDQKSLLYRDFRPVLELLTPLSEGARAWRDRLLAWDGTMAPGSEEALVFALWYTELTRLPQREVGEAYWDEPRYLLKALKEGDKNCDQPETEYRESCLDYAALALERALDRKEALGARAWGEVHRARFPHAVLTHTPLKRLSDREVAFGGDRYTVNVGPFDPETLAMGHGPSYRQIVDLSDMEGSLFVHPMGQSGHFLSRHYADLLPLWQRGDYLPMRFGAPLGRTLLLEPLPSP
notes: One gene: precursor without its first 32 residues (membrane anchor), 2223 bp insert in pET28a, His6-tag (20 aa) at N-terminus of alpha subunit kept
Consider B1, for which the Km (in general, the concentration of substrate that gives half-maximal velocity) in data set [1] came to 0.94 ± 0.18 mM; in data set [2] it was 0.74 ± 0.11 mM; in data set [3] it was 0.98 ± 0.22 mM; in data set [4], 0.32 ± 0.05 mM. Moreover, the kcat – broadly, the maximal rate divided by the concentration of active sites – in data set [1] worked out at 0.90 ± 0.03 s⁻¹; in data set [2] it was 0.57 ± 0.01 s⁻¹; in data set [3] it was 1.46 ± 0.06 s⁻¹; in data set [4] it was 5.16 ± 0.13 s⁻¹. The kcat/Km (in general, the turnover number divided by the Michaelis constant) is 960 M⁻¹ s⁻¹ in data set [1], 770 M⁻¹ s⁻¹ in data set [2], 1490 M⁻¹ s⁻¹ in data set [3] and 16100 M⁻¹ s⁻¹ in data set [4].
